Experiments:
[1] = target: T1, amyloid-β protein (Homo sapiens, UniProt P05067); test: Amyloid-β aggregation; format: biochemical
T1 construct: co-treated with 1 μM amyloid beta protein and PEP 1 (0.1, 1 and 10 μM)
Excerpt: In addition, we investigated the response of PEP-1 to the amyloid-β aggregation.

[2] = tested on: neural stem cells; test: Co-treatment amyloid-β and PEP-1: proliferation (BrdU assay); format: cell-based, rat; settings: 20 μM amyloid-β protein, co-treated 48 hours
Protocol: To determine whether PEP 1 has the effect of suppressing the neurotoxicity caused by amyloid-β protein, 20 μM amyloid-β protein and various concentrations of PEP-1 were co-treated for 48 hours. The cell viability and apoptosis were measured using MMT assay, CCK-8 assay, LDH assay and TUNEL assay, and neural stem cell proliferation by BrdU assay.
We also confirmed with BrdU assay that the decreased cell proliferation due to amyloid-β protein was restored when processed with PEP-1 (Refer to FIG. 10).

T1 sequence (P05067 672-713 limits assumed): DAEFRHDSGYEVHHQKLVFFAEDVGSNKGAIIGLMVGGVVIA

Sequence: EARPALLTSRLRFIPK [PEP-1]
- aggregation of amyloid-β protein during induction ([1]; 1 μM amyloid beta protein co-treated with PEP 1 0.1, 1 and 10 μM, FIG. 16A): inhibited
- amyloid-β protein already induced for aggregation ([1]; FIG. 16B): underwent degradation
- cell proliferation decreased by amyloid-β (BrdU) [2]: restored
